Measurements as given in US20220073643A1.

Biological target: Claudin18.2-His protein (human)
Assay: indirect ELISA on coated Claudin18.2-His

EC50 [µg/mL] | Binder
0.0351 | 61H12G10 (antibody, V domains shown) VH: QVQLKESGPGLVAPSQSLSITCTVSGFSLTDYGVSWIRQPPGKGLEWLGVIWGGGSTYYNSALKSRLIISKDNSKSQVFLKMNSLQTDDTAIYYCAKHHYGNACDYWGQGTTLTVSS VL: DIVMTQSPSSLTVTAGEKVTMSCKSSQSLFNSGNLKNYLTWYQQKPGQPPKLLICWASTRESGVPDRFTGSGSGTEFTLTISSVQAEDLAVYYCQNDYSYPFTFGSGTKLEIK
0.00266 | 69D5C1 (antibody, V domains shown) VH: EVKLVESGGGLVQPGGSRKLSCAASGFTFRDYGMAWVRQAPGKGPEWITFISNLAYSIYYADTVTGRFTISTENAKNTLYLEMSSLRSEDTAMYYCAVIYYGNSFAYWGQGTLVTV VL: DIVLTQSPSSLTVTAGEKVTMSCKSSQSLLNSGNLRNYLTWYQQKPGQPPKLLIYWASTRESGVPDRFTGSGSGTDFTLTISSLQAEDLAIYYCQNGYSYPFTFGSGTKLEIK
0.0545 | 420H7E6 (antibody, V domains shown) VH: DVQLVESGGGLVQPGGSRKLSCVTSGFTFSSFGMHWIRQAPEKGLEWVAFISGGGSPIFYADSVKGRFTVSRDNPKNTLFLQMTGLRSEDTAMYFCARFYFGNSFAYWGQGTLVTVSA VL: DIVMAQSPSSLTVTAGEKVTMNCRSSQSLFNSGNQKNYLTWYQQKPGQPPKLLIYWASTRESGVPVRFTGSGSGTDFTLTISSVQAEDLAVYYCQTGFSYPLTFGPGTKLELK
0.0297 | 423C10E1 (antibody, V domains shown) VH: DVQLVESGGGLVQPGGSRKLSCVTSGFTFSSFGMHWVRQAPEKGLEWVAFISGGGSPIFYADSVKGRFTVSRDNPKNTLFLQMTGLRSEDTAMYFCARFYFGNSFAYWGQGTLVTVSA VL: DIVMTQSPSSLTVTAGEKVTMNCRSSQSLFNSGNQKNYLTWYQQKPGQSPKLLIYWASTRESGVPVRFTGSGSGTDFTLTISSVQAEDLAVYYCQTSFNYPLTFGPGTKLELK
0.03 | 424G9G3 (antibody, V domains shown) VH: QVQLQQSGPEVVRPGASVKMSCKGSGYTLNNFWMHWVKQRPGQGLEWIGMIDTSNGETRLNQIFKDKATLTVDKSSKTAYMQLSSLTSEDSAVYYCAPYGNFADWGQGTTLTVSS VL: DVLLTQTPLSLPVSLGDQASISCRSSQSIVYGNGNTYLEWYLQKPGQSPKLLIYKVSSRFSGVPDRFSGSGSGTDFTLKITKVEAEDLGVYYCFQGSHVPFTFGSGTKLEIK
0.0113 | 420G10G3 (antibody, V domains shown) VH: DVQLVESGGGLVQPGGSRKLSCAASGFTFSGFGMHWIRQTAEKGLEWVAYISSGSRPIYYADTVQGRFTISRDNPKNTLFLQMTSLRSEDTAMYFCARFYYGNSFDHWGQGTLVTVSA VL: DIVMTQSPSFLTVTAGEKVTMSCKSSQSLLNSGNQKNYLTWYQQKPGQPPKLLIYWASTRESGVPDRFTGSGSGTDFTLTISSVQAEDLALYYCQNAYSFPLTFGAGTKLELK
0.00873 | 422E8F9 (antibody, V domains shown) VH: DVQLVESGGGLVQPGGSRKLSCAASGFTFSGFGMHWIRQTPEKGLEWVAYISSGSRPIYYADTVQGRFTISRDNPKNTLFLQMTSLRSEDTAMYFCARFYYGNSFDHWGQGTLVTVSS VL: DIVMTQSPSFLTVTAGEKVTMSCKSSQSLLNSGNQKNYLTWYQQKPGQPPKLLIYWASTRESGVPDRFTGSGSGTDFTLTISSVQAEDLALYYCQNAYSFPLTFGAGTKLELK
0.0201 | 222B6G5 (antibody, V domains shown) VH: QTYLQQSGAELVRSGASVKMSCKASGYTFTSYNIHWVKQTPGQGLEWIGYISPGNGGTYYNLKFKDKATLTTATSSSTAYMQISSLTSEDSAVYFCATGRGFAYWGQGTLVTVSA VL: DIVMTQSPSSLTVTPGEKVTMSCKSSQSLFNSGNQKNYLIWYQQKPGQPPKLLIYRASTRDSGVPDRFTGSGSGTDFTLTISNVQAEDLAVYYCQNDYSYPLTFGAGTKLELK
0.00319 | 35E8D2 (antibody, V domains shown) VH: QIQLVQSGPELKKPGETVRISCKASGYTFTTAGMQWVQKMPGKGLKWIGWINTHSRVPNFAEDFKGRFAFSLETSARIAYLQISNIKNEDMATYFCARLGKGNTMDFWGQGTSVTVSS VL: DIVMTQSPSSLTVTVGEKVTMSCKSSQSLLNSGNQKNYLTWYQQKPGQPPKLLIYWASTRESGVPDRFTGSGSETDFTLTISSLQAEDLAVYYCQNSYSFPLTFGGGTNLEIK
0.00753 | 421H4G3 (antibody, V domains shown) VH: DVQLVESGGGLVQPGGSRKLSCAASGFSFSGFGLHWIRQTPEKGLEWVAYISSGSRPIYYADTVKGRFTISRDNPKNTLFLQMTSLRSEDTAMYFCARFYFGNSFDHWGQGTLVTVST VL: DIVMTQSPSFLTVTAGEKVTMSCRSSQSLLNSGNQRNYLTWYQQKPGQPPKLLIYWASTRESGVPDRFTGSGSGTDFTLTINSVQAEDLALYYCQNAYSFPLTFGAGTKLELK
0.149 | 422F4B6 (antibody, V domains shown) VH: DVQLVESGGGLVQPGGSRKLSCAASGFSFSSFGMHWVRQAPEKGLEWVAYISSGSSPIYYADTVKGRFIISRDNPKNTLFLQMTSLRSEDTAMYFCARIYYGNSFAYWGQGTLVTVSA VL: DIVMTQSPSSLTVTAGEKVTMSCKSSQTLLNSGNQKNYLTWYQQKPGQPPKLLIYWASTRESGVPDRFTGSGSGTDFTLTISSVQAEDLAVYYCQNAYSYPLTFGSGTKLELK
0.00813 | 226A4B5 (antibody, V domains shown) VH: QAYLQQSGAELVRSGASVRMSCKASGFTFTSYNIHWVKQTPGQGLEWIGYIYPGSGGSNYNQKFMGKATLTADTSSSTVYMQISSLTSEDSAVYFCATGRGFAYWGQGTLVTVSA VL: DIVMTQSPSSLTVTAGEKVTMSCKSSQSLFNSGNQKNYLTWYQQKPGQPPKLLIYRASTRESGVPDRFTGSGSGTDFTLTISSVQAEDLAVYYCQNDYSYPLTFGTGTKLELK
0.0114 | 425C6D3 (antibody, V domains shown) VH: DVQLVESGGGLVQPGGSRKLSCAASGFTFSGFGMHWIRQTPEKGLEWVAYISSGSRPIYYADTVQGRFTISRDNPKNTLFLQMTSLRSEDTAMYFCARFYYGNSFDHWGQGTLVTVSS VL: DIVMTQSPSFLTVTAGEKVTMSCKSSQSLLNSGNQKNYLTWYQQKPGQPPKLLIYWASTRESGVPDRFTGSGSGTDFTLTISSVQAEDLALYYCQNAYSFPLTFGAGTKLELK
0.0271 | 203A6D5 (antibody, V domains shown) VH: QVQLKQSGPGLVQPSQSLSITCTVSGFSLTRYGVHWVRQSPGKGLEWLGVIWSGGNTDYNAAFISRLNIRKDNSKSQVFFKMNSLKPNDTAIYYCARAAYFGNSFDYWGQGTTLTVSS VL: DIVMTQSPSSLPVTAGEKVTMSCKSSQSLLNSGNQKNYLTWYQQKPGQPPKLLIYWASTRDSGVPDRFTGSGSGTDFTLTISSVQAEDLAVYYCQNNYIYPLTFGAGTKLELK
0.0224 | 426H6E11 (antibody, V domains shown) VH: DVQLVESGGGLVQPGGSRKLSCAASGFTFSGFGMHWIRQTPEKGLEWVAYISSGSRPIYYADTVQGRFTISRDNPKNTLFLQMTSLRSEDTAMYFCARFYYGNSFDHWGQGTLVTVSS VL: DIVMTQFPSFLTVTAGEKVTMSCKSSQTLLNSGNQKNYLTWYQQKPGQPPKLLIYWASTRESGVPDRFTGSGSGTDFTLTISSVQAEDLALYYCQNAYSFPLTFGAGTNLELK
0.0335 | 207F8G5 (antibody, V domains shown) VH: QAYLQQSGAELVRSGASVKMSCKASGFTFTSYNIHWVKQTPGQGLEWIGYISPGNGGSNYNLKFKDKATLTSATSSSTAYMQISSLTSEDSAVYFCATGRGFAYWGQGTLVTVSA VL: DIVMTQSPSSLTVTPGEKVTMSCKSSQSLFNSGNQKNYLIWYQQKPGQPPKLLIYRASTRDSGVPDRFTGSGSGTDFTLTISNVQAEDLAIYYCQNDYSYPLTFGAGTKLELK
0.0112 | 426D9F6 (antibody, V domains shown) VH: DVQLVESGGGLVQPGGSRKLSCAASGFTFSGFGMHWIRQTPEKGLEWVAYISSGSRPIYYADTVKGRFTISRDNPKNTLFLQMTSLRSEDTAMYFCARFYYGNSFDHWGQGTLVTVSA VL: DIVMTQSPSFLTVTAGEKVTMSCKSSQSLLNSGNQRNYLTWYQQKPGQPPKLLIYWASTRESGVPDRFTGSGSGTDFTLTVSSVQAEDLALYYCQNAYSFPLTFGAGTKLELK
0.00722 | 420H3H9 (antibody, V domains shown) VH: DVQLVESGGGLVQPGGSRKLSCAASGFTFSSFGMHWVRQAPEKGLEWVAYISSGSSTIYYAHSVKGRFTISRDNPKNTLFLQMTSLGSEDTAMYYCARFYYGNSFAYWGQGTLVTVSA VL: DIVMTQSPSSLTVTAGEKVTLSCKSSQSLLNSGNQKNYLTWYQQKPGQPPKMLIYWASTRESGVPDRFTGSGSGTDFTLTISSVQAEDLADYYCQNAYTYPLTFGAGTRLELK
0.0236 | 182D10F1 (antibody, V domains shown) VH: QAYLQQSGAELVRSGASVKMSCKASGYTFSSYNMHWVKQTPGQGLEWIGYIYPGNGGTNYNQKFKGKATLTADTSSSTAYMQISSLTSEDSAVYFCLTGRGFTYWGQGTLVTVSA VL: DIVMTQSPSSLTVTAGEKVTMNCKSSQSLFNSGNQKNYLTWYQQKPGQPPKLLIYRASTRESGVPDRFTGSGSGTDFTLTISSVQAEDLAVYYCQNDYSYPLTFGVGTKLELK
0.0154 | 430B3F1 (antibody, V domains shown) VH: DVQLVESGGGLVQPGGSRKLSCAASGFTFSGFGMHWIRQTPEKGLEWVAYISSGGRPIYYADTVQGRFTISRDNPKNTLFLQMTSLRSEDTAMYFCARFYYGNSFDHWGQGTLVTISS VL: DIVMTQSPSFLTVTAGEKVTMSCKSSQSLLNSGNQKNYLTWYQQKPGQPPKLLIYWASTRESGVPDRFTGSGSGTDFTLTISSVQAEDLALYYCQNAYSFPLTFGAGTKLELK
0.0037 | 425B3D5 (antibody, V domains shown) VH: DVQLVESGGGLVQPGGSRKLSCAASGFTFSGFGMHWIRQTPEKGLEWVAYISSGSRPIYYADTVQGRFTISRDNPKNTLFLQMTSLRSEDTAMYFCARFYYGNSFDHWGQGTLVTVSS VL: DIVMTQSPSFLTVTAGEKVTMSCKSSQSLLNSGNQKNYLTWYQQKPGQPPKLLIYWASTRESGVPDRFTGSGSGTDFTLTISSVQAEDLALYYCQNAYSFPLTFGAGTKLELK
0.028 | 217D9G2 (antibody, V domains shown) VH: QAYLQQSGAELVRSGASVKMSCKASGFTFTSYNIHWVKQTPGQGLEWIGYISPGNGGSNYNLNFKDKATLTAATSSTTAYMQISSLTSEDSAVYFCATGRGFAYWGQGTLVTVSA VL: DIVMTQSPSSLTVTPGEKVTMSCRSSQSLFNSGNQKNYLIWYQQKPGQPPKLLIYRASTRDSGVPDRFTGSGSGTDFTLTISNVQAEDLAVYYCQNDYSYPLTFGAGTKLELK
